Laboratory results from paper PMC11074299.

Molecular target: Casp-8^tDED_F122G/L123G mutant (human) (UniProt Q14790)
Assay: crystal structure; FA^FuL_H9G-C8^FGLG-CF^H7G complex; proteins individually expressed in E. coli, complex co-purified by Ni-NTA and SEC (80 mM NaCl, 20 mM Tris pH 8.0); hanging drop, 20 °C; MR-SAD; 3.1 Å; one 1:5:4 complex per asymmetric unit; FADD DD not visible

For “Casp-8^tDED_F122G/L123G mutant (from UniProt Q14790 1-185) (domain or fragment)”, the stoichiometry N was 5.
